Test results taken from patent US20250376533A1 (FUTUREGEN BIOPHARMACEUTICAL BEIJING, published 2025).
Numbering of substitutions follows the chain as printed. Names may count otherwise.

T1: rat CD40 antigen (ACROBiosystems) (rat, UniProt A6JXD6 20-193)
T1 construct: Bought antigen coated on ELISA plates; construct not described
T1 sequence: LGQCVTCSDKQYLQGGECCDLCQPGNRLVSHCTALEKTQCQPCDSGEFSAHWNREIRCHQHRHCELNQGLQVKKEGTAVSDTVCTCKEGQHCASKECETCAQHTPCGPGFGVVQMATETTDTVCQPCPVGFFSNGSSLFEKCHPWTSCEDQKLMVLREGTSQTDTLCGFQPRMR

B1: anti-PD-L1/CD40 bispecific antibody 1607 (bispecific antibody, human IgG2, kappa)
light: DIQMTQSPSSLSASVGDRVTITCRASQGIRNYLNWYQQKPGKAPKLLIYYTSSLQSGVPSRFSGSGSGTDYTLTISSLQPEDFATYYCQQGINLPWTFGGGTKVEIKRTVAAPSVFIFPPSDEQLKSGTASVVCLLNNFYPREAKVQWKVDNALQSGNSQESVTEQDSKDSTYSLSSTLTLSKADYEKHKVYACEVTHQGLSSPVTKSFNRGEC
heavy: EVQLVESGGGLVQPGGSLRLSCAASGFTFSDYYMSWVRQAPGKGLEWVGFIRNKANGYTTEYAASVKGRFTISRDNSKSTLYLQMNSLRAEDTAVYYCARYGGLKKGWYFDLWGQGTLVTVSSASTKGPSVFPLAPCSRSTSESTAALGCLVKDYFPEPVTVSWNSGALTSGVHTFPAVLQSSGLYSLSSVVTVPSSNFGTQTYTCNVDHKPSNTKVDKTVERKCCVECPPCPAPPVAGPSVFLFPPKPKDTLMISRTPEVTCVVVDVSHEDPEVQFNWYVDGVEVHNAKTKPREEQFNSTFRVVSVLTVVHQDWLNGKEYKCKVSNKGLPAPIEKTISKTKGQPREPQVYTLPPSREEMTKNQVSLTCLVKGFYPSDIAVEWESNGQPENNYKTTPPMLDSDGSFFLYSKLTVDKSRWQQGNVFSCSVMHEALHNHYTQKSLSLSPGGGGGSGGGGSGGGGSGEVQLVESGGGLVQPGGSLRLSCAASGFTFDYYTQCWFRQAPGKEREWVSCISSSEGSTYYADSVKGRFTISRDNSKNTVYLQMNSLKTEDTAVYYCAARKGGPLTIENFFDYWGQGTQVTVSS
notes: First polypeptide chain = anti-CD40 light chain; second polypeptide chain = anti-CD40 heavy chain with the 1541 VHH joined to its C-terminus by a G4S linker
B2: anti-PD-L1/CD40 bispecific antibody 1608 (bispecific antibody, human IgG2, kappa)
light: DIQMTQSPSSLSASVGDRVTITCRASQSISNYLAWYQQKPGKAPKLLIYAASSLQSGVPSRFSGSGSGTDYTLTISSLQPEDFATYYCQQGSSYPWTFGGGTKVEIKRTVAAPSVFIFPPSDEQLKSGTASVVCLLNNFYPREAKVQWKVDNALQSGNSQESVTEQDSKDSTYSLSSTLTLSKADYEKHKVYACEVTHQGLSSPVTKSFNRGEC
heavy: B1 heavy with D31N, S87R, K106V
notes: as for B1
B3: anti-PD-L1/CD40 bispecific antibody 1655 (bispecific antibody, human IgG2, kappa)
light: DIQMTQSPSSLSASVGDRVTITCRASQTISSYLNWYQQKPGKAPKLLIYYTSTLQSGVPSRFSGSGSGTDYTLTISSLQPEDFATYYCQQGNAYPWTFGGGTKVEIKRTVAAPSVFIFPPSDEQLKSGTASVVCLLNNFYPREAKVQWKVDNALQSGNSQESVTEQDSKDSTYSLSSTLTLSKADYEKHKVYACEVTHQGLSSPVTKSFNRGEC
heavy: B1 heavy with D31N, G57A, K106I
notes: as for B1
B4: anti-PD-L1/CD40 bispecific antibody 1654 (bispecific antibody, human IgG2, kappa)
light: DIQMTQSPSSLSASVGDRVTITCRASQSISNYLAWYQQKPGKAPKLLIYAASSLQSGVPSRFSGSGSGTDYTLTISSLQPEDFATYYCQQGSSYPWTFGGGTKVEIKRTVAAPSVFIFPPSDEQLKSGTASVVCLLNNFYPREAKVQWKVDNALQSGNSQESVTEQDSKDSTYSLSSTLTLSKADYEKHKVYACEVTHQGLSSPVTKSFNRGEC
heavy: B1 heavy with D31N, G57A, S87R, K106V
notes: as for B1
B5: anti-PD-L1/CD40 bispecific antibody 1609 (bispecific antibody, human IgG2, kappa)
light: B3 light
heavy: B1 heavy with D31N, K106I
notes: as for B1
B6: anti-PD-L1/CD40 bispecific antibody 1652 (bispecific antibody, human IgG2, kappa)
light: B3 light with T28D, S30R, S31N, T53R, L54R, Q55D, Y87F, N92K, A93T, Y94L
heavy: B1 heavy with G57A, S79N, K105R, K106Q, L112V
notes: as for B1

Each binder was assayed against T2, CD40 on HEK-Blue CD40L cells (InvivoGen) (UniProt P25942 21-277, limits assumed) (assay: flow cytometry, competition with 10 nM Biotin-CD40L on HEK-Blue CD40L cells).
T2 construct: whole, on cells; also called HEK-Blue CD40L cells that highly express CD40
Description: The blocking effect of bispecific antibodies on CD40/CD40L binding was tested using HEK-Blue CD40L cells that highly express CD40. The specific method is as follows: HEK-Blue CD40L cells were collected and resuspended in pre-cooled PBS containing 2% FBS at a density of 1E7 cells/mL, and then added to a 96-well plate at 50 μL per well, i.e., 5E5 cells/well. Biotin-CD40L (FutureGen Biopharmaceutical) and serially diluted bispecific antibody were then added at 50 μL per well, with a final concentration of Biotin-CD40L of 10 nM, and the plate was incubated at 4° C. for 1 hour. The wells were washed twice with pre-cooled PBS. Streptavidin-PE (BioLegend, Cat. No. 405203) diluted in pre-cooled PBS containing 2% FBS was added, and the plate was incubated at 4° C. for 30 minutes. The wells were washed twice with pre-cooled PBS. The cells were then resuspended in pre-cooled PBS containing 2% FBS and assayed by flow cytometry.

T2 sequence (P25942 21-277 limits assumed): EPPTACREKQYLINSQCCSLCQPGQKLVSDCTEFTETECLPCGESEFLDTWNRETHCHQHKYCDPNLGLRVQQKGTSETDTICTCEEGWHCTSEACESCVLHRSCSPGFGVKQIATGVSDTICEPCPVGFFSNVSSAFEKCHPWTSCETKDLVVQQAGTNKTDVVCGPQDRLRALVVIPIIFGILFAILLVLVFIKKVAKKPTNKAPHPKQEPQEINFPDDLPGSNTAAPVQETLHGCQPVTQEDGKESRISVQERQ

Row | Binder | IC50 [pM]
1 | B1 | 703
2 | B2 | 4540
3 | B3 | 8630
4 | B4 | 7700
5 | B5 | 3160
6 | B6 | 852

These binders were tested against T2, CD40 on HEK-Blue CD40L cells (InvivoGen) (assay: cell-based or functional assay).

Row | Binder | CD40 agonistic activity (A)/(B) Ratio, EC50 without over with CHO/PD-L1 | CD40 agonistic activity EC50 (nM) with CHO/PD-L1 (B), SEAP reporter [nM] | CD40 agonistic activity EC50 (nM) without CHO/PD-L1 (A), SEAP reporter [nM]
7 | B1 | 2.4 | 0.012 | 0.029
8 | B2 | 20.2 | 0.02 | 0.396
9 | B3 | 25.3 | 0.027 | 0.686
10 | B4 | 23.2 | 0.027 | 0.633
11 | B5 | 28 | 0.02 | 0.556
12 | B6 | 4.1 | 0.022 | 0.092

These binders were tested against T1, rat CD40 antigen (ACROBiosystems) (assay: ELISA, coated antigen).
Description: (§1) The binding ability of bispecific antibody to human PD-L1 and human CD40, as well as the species specificity, was detected using an enzyme-linked immunosorbent assay (ELISA). The specific method is as follows: human PD-L1, cynomolgus PD-L1, rat PD-L1, mouse PD-L1, human CD40, cynomolgus CD40, rat CD40, and mouse CD40 antigens (all purchased from ACROBiosystems) were coated with 1 μg/mL carbonate buffer (pH=9.6) in an ELISA plate at 100 μL per well, followed by incubation at 4° C. overnight. The wells were washed 5 times with PBST. 300 μL/well of PBST containing 1% BSA was added to block the wells, and the plate was incubated at room temperature for 1 hour. The wells were washed 5 times with PBST. […] The wells were washed 5 times with PBST. […] The wells were washed 5 times with PBST. Colorimetric substrate TMB was added at 100 μL per well and allowed to develop color at room temperature for 10 minutes, followed by the addition of 1 M sulfuric acid to terminate the reaction. The OD_{450 nm} was read on a microplate reader to analyze the results, and the EC₅₀ was calculated using a 4-parameter fit binding curve.
(§2) These bispecific antibodies are not able to bind to rat PD-L1 and CD40 or mouse PD-L1 and CD40.

Row | Binder | binding result
13 | B1 | no binding
14 | B2 | no binding
15 | B3 | no binding
16 | B4 | no binding
17 | B5 | no binding
18 | B6 | no binding

These binders were tested against T3, human PD-L1 antigen (ACROBiosystems) (human, UniProt Q9NZQ7 19-238) (assay: ELISA, coated antigen).
T3 construct: Bought antigen coated on ELISA plates
Description: as §1, §2

T3 sequence (Q9NZQ7 19-238 limits assumed): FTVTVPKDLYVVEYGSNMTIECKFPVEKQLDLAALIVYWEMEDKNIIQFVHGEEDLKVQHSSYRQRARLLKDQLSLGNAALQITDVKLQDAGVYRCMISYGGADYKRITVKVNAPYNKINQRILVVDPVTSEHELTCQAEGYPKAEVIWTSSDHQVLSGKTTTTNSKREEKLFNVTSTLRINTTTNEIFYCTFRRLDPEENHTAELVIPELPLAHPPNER

Row | Binder | EC50 [pM]
19 | B1 | 36
20 | B2 | 38
21 | B3 | 39
22 | B4 | 31
23 | B5 | 34
24 | B6 | 35

What follows are binders tested against T4, cynomolgus PD-L1 antigen (ACROBiosystems) (cynomolgus, UniProt G7PSE7 19-238) (assay: ELISA, coated antigen).
T4 construct: Bought antigen coated on ELISA plates; construct not described
Description: as §1, §2

T4 sequence (G7PSE7 entry or part of it): as the sequence (Q9NZQ7 19-238 limits assumed) above, with A33T, A34S, S62N, R68Q, Q82R, F173L, T185A, T192I, H215L counted along it

Row | Binder | EC50 [pM]
25 | B1 | 19
26 | B2 | 19
27 | B3 | 23
28 | B4 | 45
29 | B5 | 16
30 | B6 | 18

The binders below were run against T5, mouse PD-L1 antigen (ACROBiosystems) (mouse, UniProt Q9EP73 19-239) (assay: ELISA, coated antigen).
T5 construct: Bought antigen coated on ELISA plates; construct not described
Description: as §1, §2

T5 sequence (Q9EP73 19-239 limits assumed): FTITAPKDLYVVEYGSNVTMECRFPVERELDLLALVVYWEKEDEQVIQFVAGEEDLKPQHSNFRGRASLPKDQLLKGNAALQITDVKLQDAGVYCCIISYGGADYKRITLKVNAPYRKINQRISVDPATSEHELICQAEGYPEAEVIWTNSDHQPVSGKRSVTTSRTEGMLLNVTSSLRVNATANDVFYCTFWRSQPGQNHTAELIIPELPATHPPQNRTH

Row | Binder | binding result
31 | B1 | no binding
32 | B2 | no binding
33 | B3 | no binding
34 | B4 | no binding
35 | B5 | no binding
36 | B6 | no binding

These binders were tested against T6, human CD40 antigen (ACROBiosystems) (human, UniProt P25942 21-193) (assay: ELISA, coated antigen).
T6 construct: Bought antigen coated on ELISA plates; construct not described
Description: as §1, §2

T6 sequence (P25942 21-193 limits assumed): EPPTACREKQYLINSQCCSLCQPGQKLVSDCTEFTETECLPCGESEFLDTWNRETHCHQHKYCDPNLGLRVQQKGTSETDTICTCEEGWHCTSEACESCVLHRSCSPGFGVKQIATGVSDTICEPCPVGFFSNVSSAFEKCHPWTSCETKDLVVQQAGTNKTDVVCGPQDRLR

Row | Binder | EC50 [pM]
37 | B1 | 20
38 | B2 | 22
39 | B3 | 25
40 | B4 | 13
41 | B5 | 21
42 | B6 | 21

Each binder was assayed against T7, cynomolgus CD40 antigen (ACROBiosystems) (cynomolgus, UniProt G7PG38 21-193) (assay: ELISA, coated antigen).
T7 construct: Bought antigen coated on ELISA plates; construct not described
Description: as §1, §2

Row | Binder | EC50 [pM]
43 | B1 | 16
44 | B2 | 20
45 | B3 | 6
46 | B4 | 13
47 | B5 | 19
48 | B6 | 17

Each binder was assayed against T8, rat PD-L1 antigen (ACROBiosystems) (rat, UniProt D4AE25 19-239) (assay: ELISA, coated antigen).
T8 construct: Bought antigen coated on ELISA plates; construct not described
Description: as §1, §2

T8 sequence (D4AE25 entry or part of it limits assumed): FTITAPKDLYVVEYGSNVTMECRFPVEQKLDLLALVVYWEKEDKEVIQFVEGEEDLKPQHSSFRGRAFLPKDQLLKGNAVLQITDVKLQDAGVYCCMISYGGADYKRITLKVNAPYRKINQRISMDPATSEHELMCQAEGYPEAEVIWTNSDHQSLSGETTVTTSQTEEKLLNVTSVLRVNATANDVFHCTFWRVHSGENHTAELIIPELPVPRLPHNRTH

Row | Binder | binding result
49 | B1 | no binding
50 | B2 | no binding
51 | B3 | no binding
52 | B4 | no binding
53 | B5 | no binding
54 | B6 | no binding

These binders were tested against T9, mouse CD40 antigen (ACROBiosystems) (mouse, UniProt P27512 24-193, limits assumed) (assay: ELISA, coated antigen).
T9 construct: Bought antigen coated on ELISA plates; construct not described
Description: as §1, §2

T9 sequence (P27512 24-193 limits assumed): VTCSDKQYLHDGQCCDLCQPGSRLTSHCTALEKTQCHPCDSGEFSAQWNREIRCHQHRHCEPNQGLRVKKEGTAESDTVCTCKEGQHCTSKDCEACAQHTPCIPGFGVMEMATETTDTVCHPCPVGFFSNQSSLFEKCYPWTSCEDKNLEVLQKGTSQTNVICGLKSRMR

Row | Binder | binding result
55 | B1 | no binding
56 | B2 | no binding
57 | B3 | no binding
58 | B4 | no binding
59 | B5 | no binding
60 | B6 | no binding

What follows are binders tested against T6, human CD40 antigen (ACROBiosystems) (assay: bridging ELISA: coated human CD40, serially diluted bispecific antibody, detection with biotin-labeled human PD-L1 and streptavidin-HRP, OD450).
Description: Antigen human CD40 (purchased from ACROBiosystems) was coated with 1 μg/mL carbonate buffer (pH=9.6) in an ELISA plate at 100 μL per well, followed by incubation at 4° C. overnight. The wells were washed 5 times with PBST. 300 μL/well of PBST containing 1% BSA was added to block the wells, and the plate was incubated at room temperature for 1 hour. The wells were washed 5 times with PBST. […] The wells were washed 5 times with PBST. Biotin-labeled human PD-L1 (FutureGen Biopharmaceutical) diluted with PBST containing 1% BSA was added at 100 μL per well, and the plate was incubated at room temperature for 1 hour. The wells were washed 5 times with PBST. Streptavidin-HRP (BioLegend, Cat. No. 405210) diluted with PBST containing 1% BSA was added at 100 μL per well, and the plate was incubated at room temperature for 30 minutes. Colorimetric substrate TMB was added at 100 μL per well and allowed to develop color at room temperature for 10 minutes, followed by the addition of 1 M sulfuric acid to terminate the reaction. The OD_[…] was read on a microplate reader to analyze the results, and the EC₅₀ was calculated using a 4-parameter fit binding curve.

Row | Binder | EC50 [pM]
61 | B1 | 32
62 | B2 | 29
63 | B3 | 39
64 | B4 | 26
65 | B5 | 39
66 | B6 | 32
